Data as given in the supplement of paper PMC6757056.
± gives the standard deviation of the averaged measurements.

B1: library; a variant is named by its letters at N, in order (parent)
chain: GCUGUCACCGGAAUACCAGCAUCGUCUUGAUGCCCUUGGAAGUCCGGUCUGAUGAGUCCNNNNNGGACGAAACAGC

Legend:
theophylline [1] = variants of: B1; test: FACS-Seq fitted mean relative fluorescence mCherry/BFP without ligand (log10 relative fluorescence); higher = higher reporter protein expression; conditions: HEK293T, ligand present: no
Summary of the method: (§1)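 Enriched HEK293T cells carrying, by lentivirus, an mCherry reporter with the ribozyme switch and an EF1α-BFP marker spent 48 h with or without ligand and were sorted into 6 bins by mCherry/BFP. MiSeq sequencing of PCR-amplified bin genomic DNA gave bin counts. Fluorescence was calculated as the fitted normal mean of those counts. Counts were binned on log10(mCherry/BFP), and means were scaled to five spiked-in control ribozymes.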

theophylline [2] = variants of: B1; test: normalized RNA/DNA level with ligand (relative to sTRSVctl = 100) (log10 (% of sTRSVctl)); higher = less ribozyme self-cleavage, higher mRNA level; conditions: ligand concentration (+) RNA-Seq: 5 mM, HEK293T, reporter: mCherry (pCS4076), ligand present: yes
Summary of the method: (§2)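 For each 6-well well, 4 µg of library plasmid encoding mCherry-linked ribozyme switches, or eGFP-linked ones in some ligand experiments, was transfected into HEK293T. Any ligand was added 1 h before transfection, and RNA was extracted with EDTA 72 h after it, then reverse-transcribed, amplified, barcoded and sequenced. RNA level was obtained by dividing RNA reads by DNA reads, normalizing to a spiked-in non-cleaving sequence or to the top sequences, then scaling and log-transforming. The top set was 25 sequences, scaling was ×100 with log10, and ≥100 DNA reads were required.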

theophylline [3] = variants of: B1; test: normalized RNA/DNA level without ligand (relative to sTRSVctl = 100) (log10 (% of sTRSVctl)); higher = less ribozyme self-cleavage, higher mRNA level; conditions: HEK293T, reporter: mCherry (pCS4076), ligand present: no
Summary of the method: as §2

theophylline [4] = variants of: B1; test: FACS-Seq fitted mean relative fluorescence mCherry/BFP with ligand (log10 relative fluorescence); ligand concentration (+) FACS-Seq: 1 mM; higher = higher reporter protein expression; conditions: HEK293T, ligand present: yes
Summary of the method: as §1

| Variant | FACS-Seq fitted mean (log10) (theophylline [1]) | normalized RNA/DNA level with ligand (log10) (theophylline [2]) | normalized RNA/DNA level without ligand (log10) (theophylline [3]) | FACS-Seq fitted mean (log10) (theophylline [4]) |
| --- | --- | --- | --- | --- |
| GCUGUCACCGGAAUACCAGCAUCGUCUUGAUGCCCUUGGAAGUCCGGUCUGAUGAGUCCAAUAGGGACGAAACAGC | 0.929 ± 0.015 | 1.965 ± 0.015 | 1.85 ± 0.039 | 0.894 ± 0.16 |
| GCUGUCACCGGAAUACCAGCAUCGUCUUGAUGCCCUUGGAAGUCCGGUCUGAUGAGUCCCAAUAGGACGAAACAGC | 0.192 ± 0.018 | 1.96 ± 0.054 | 1.16 ± 0.17 | 0.785 ± 0.033 |
| GCUGUCACCGGAAUACCAGCAUCGUCUUGAUGCCCUUGGAAGUCCGGUCUGAUGAGUCCUCCACGGACGAAACAGC | 0.712 ± 0.067 | 2.05 ± 0.04 | 1.95 ± 0.12 | 0.737 ± 0.036 |
| GCUGUCACCGGAAUACCAGCAUCGUCUUGAUGCCCUUGGAAGUCCGGUCUGAUGAGUCCUCCAAGGACGAAACAGC | 0.973 ± 0.14 | 2.04 ± 0.078 | 1.84 ± 0.09 | 0.912 ± 0.053 |
| GCUGUCACCGGAAUACCAGCAUCGUCUUGAUGCCCUUGGAAGUCCGGUCUGAUGAGUCCGAACCGGACGAAACAGC | 0.828 ± 0.017 | 2 ± 0.024 | 1.87 ± 0.13 | 0.834 ± 0.11 |
| GCUGUCACCGGAAUACCAGCAUCGUCUUGAUGCCCUUGGAAGUCCGGUCUGAUGAGUCCCAUAUGGACGAAACAGC | 0.397 ± 0.059 | 2.02 ± 0.043 | 1.76 ± 0.21 | 0.362 ± 0.069 |
| GCUGUCACCGGAAUACCAGCAUCGUCUUGAUGCCCUUGGAAGUCCGGUCUGAUGAGUCCUAUAAGGACGAAACAGC | 0.194 ± 0.045 | 2.02 ± 0.052 | 1.47 ± 0.088 | 0.511 ± 0.038 |
| GCUGUCACCGGAAUACCAGCAUCGUCUUGAUGCCCUUGGAAGUCCGGUCUGAUGAGUCCAUUGUGGACGAAACAGC | 1.06 ± 0.018 | 2.04 ± 0.047 | 1.88 ± 0.064 | 1.15 ± 0.022 |
| GCUGUCACCGGAAUACCAGCAUCGUCUUGAUGCCCUUGGAAGUCCGGUCUGAUGAGUCCUGCGUGGACGAAACAGC | 0.83 ± 0.044 | 1.97 ± 0.088 | 1.923 ± 0.018 | 0.761 ± 0.07 |
| GCUGUCACCGGAAUACCAGCAUCGUCUUGAUGCCCUUGGAAGUCCGGUCUGAUGAGUCCAAGACGGACGAAACAGC | 0.968 ± 0.16 | 1.91 ± 0.06 | 1.86 ± 0.14 | 0.922 ± 0.12 |
| GCUGUCACCGGAAUACCAGCAUCGUCUUGAUGCCCUUGGAAGUCCGGUCUGAUGAGUCCGCAACGGACGAAACAGC | 0.716 ± 0.09 | 1.93 ± 0.066 | 1.826 ± 0.0042 | 0.739 ± 0.094 |
| GCUGUCACCGGAAUACCAGCAUCGUCUUGAUGCCCUUGGAAGUCCGGUCUGAUGAGUCCUCUGCGGACGAAACAGC | 0.365 ± 0.16 | 1.98 ± 0.096 | 2.02 ± 0.032 | 0.642 ± 0.034 |
| GCUGUCACCGGAAUACCAGCAUCGUCUUGAUGCCCUUGGAAGUCCGGUCUGAUGAGUCCAGGGCGGACGAAACAGC | 0.731 ± 0.092 | 1.95 ± 0.022 | 1.93 ± 0.094 | 0.756 ± 0.037 |
| GCUGUCACCGGAAUACCAGCAUCGUCUUGAUGCCCUUGGAAGUCCGGUCUGAUGAGUCCAUAAUGGACGAAACAGC | 0.702 ± 0.0096 | 2.002 ± 0.012 | 1.79 ± 0.079 | 0.703 ± 0.064 |
| GCUGUCACCGGAAUACCAGCAUCGUCUUGAUGCCCUUGGAAGUCCGGUCUGAUGAGUCCCUCGAGGACGAAACAGC | 0.868 ± 0.018 | 2.04 ± 0.076 | 1.95 ± 0.12 | 0.883 ± 0.1 |
| GCUGUCACCGGAAUACCAGCAUCGUCUUGAUGCCCUUGGAAGUCCGGUCUGAUGAGUCCUGAUAGGACGAAACAGC | 0.3741 ± 0.0021 | 1.955 ± 0.0019 | 1.42 ± 0.17 | 0.789 ± 0.084 |
| GCUGUCACCGGAAUACCAGCAUCGUCUUGAUGCCCUUGGAAGUCCGGUCUGAUGAGUCCAAAGGGGACGAAACAGC | 0.199 ± 0.022 | 1.976 ± 0.019 | 1.71 ± 0.033 | 0.426 ± 0.04 |
| GCUGUCACCGGAAUACCAGCAUCGUCUUGAUGCCCUUGGAAGUCCGGUCUGAUGAGUCCGAAGUGGACGAAACAGC | 0.25 ± 0.013 | 1.94 ± 0.12 | 1.68 ± 0.17 | 0.483 ± 0.031 |
